The source of these data is paper PMC12749841 (Nature Communications, 2025).

The target of this assay is importin β (human, UniProt Q14974 1-876). Put plainly: cryo-EM structure.
importin β, sequence (Q14974 whole entry): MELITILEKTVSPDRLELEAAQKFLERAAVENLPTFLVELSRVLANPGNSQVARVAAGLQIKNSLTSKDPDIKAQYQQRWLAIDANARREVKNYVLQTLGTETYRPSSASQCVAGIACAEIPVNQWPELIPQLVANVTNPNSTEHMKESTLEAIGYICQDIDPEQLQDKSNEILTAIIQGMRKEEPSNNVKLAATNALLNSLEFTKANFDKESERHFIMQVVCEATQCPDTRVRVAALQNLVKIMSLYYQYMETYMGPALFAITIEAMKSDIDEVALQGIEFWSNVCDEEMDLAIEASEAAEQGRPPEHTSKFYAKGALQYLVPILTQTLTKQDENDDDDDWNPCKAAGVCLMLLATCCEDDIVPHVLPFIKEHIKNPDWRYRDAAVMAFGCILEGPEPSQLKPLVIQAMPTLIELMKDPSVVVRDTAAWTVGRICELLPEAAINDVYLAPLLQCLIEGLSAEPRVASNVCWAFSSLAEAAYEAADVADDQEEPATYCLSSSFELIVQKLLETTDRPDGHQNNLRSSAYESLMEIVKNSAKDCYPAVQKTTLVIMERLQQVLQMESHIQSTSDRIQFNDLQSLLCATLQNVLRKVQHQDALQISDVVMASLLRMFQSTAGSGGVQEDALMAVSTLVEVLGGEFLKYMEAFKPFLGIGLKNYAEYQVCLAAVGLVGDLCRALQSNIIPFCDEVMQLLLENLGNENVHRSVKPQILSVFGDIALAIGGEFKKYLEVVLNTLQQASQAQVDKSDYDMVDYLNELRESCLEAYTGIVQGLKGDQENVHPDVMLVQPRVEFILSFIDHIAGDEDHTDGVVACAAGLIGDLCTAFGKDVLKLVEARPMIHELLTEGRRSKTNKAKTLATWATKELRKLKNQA

B1: importin α1 IBB domain (res 1–65) fused to 6xHis Maltose Binding Protein (domain or fragment)
chain: not shown
For the molecule B1, the binding result is “binds”.
